Substrate in data set [1]: OC[C@H]1O[C@@H](O[C@H]2[C@H](O)[C@@H](O)[C@H](O[C@H]3[C@H](O)[C@@H](O)C(O)O[C@@H]3CO)O[C@@H]2CO)[C@H](O)[C@@H](O)[C@@H]1O
The data set is described as follows: purified protein, by the assay type. The note with it: other: cellotriose, 5 mM acetate pH 5.0, 50 degrees C, 50.0 °C.

Substrate in data set [2]: OC[C@H]1O[C@@H](O[C@H]2[C@H](O)[C@@H](O)[C@H](O[C@H]3[C@H](O)[C@@H](O)C(O)O[C@@H]3CO)O[C@@H]2CO)[C@H](O)[C@@H](O)[C@@H]1O
The data set is described as follows: purified protein, by the assay type. Format: biochemical, Acidothermus cellulolyticus. The note with it: other: cellotriose, 5 mM acetate pH 5.0, 50 degrees C, 50.0 °C.

Substitutions are numbered along the chain they refer to. Names may count otherwise.

B1: Acidothermus cellulolyticus EI endoglucanase (Cel5A) catalytic domain, native (wild type), SEQ ID NO:3 of U.S. Pat. No. 5,536,655 (Acidothermus cellulolyticus … (protein)
chain: AGGGYWHTSGREILDANNVPVRIAGINWFGFETCNYVVHGLWSRDYRSMLDQIKSLGYNTIRLPYSDDILKPGTMPNSINFYQMNQDLQGLTSLQVMDKIVAYAGQIGLRIILDRHRPDCSGQSALWYTSSVSEATWISDLQALAQRYKGNPTVVGFDLHNEPHDPACWGCGDPSIDWRLAAERAGNAVLSVNPNLLIFVEGVQSYNGDSYWWGGNLQGAGQYPVVLNVPNRLVYSAHDYATSVYPQTWFSDPTFPNNMPGIWNKNWGYLFNQNIAPVWLGEFGTTLQSTTDQTWLKTLVQYLRPTAQYGADSFQWTFWSWNPDSGDTGGILKDDWQTVDTVKDGYLAPIKSSIFDPVG
B1: in data set [1], the Michaelis constant (Km) (commonly the substrate concentration at which the rate is half of its maximum) worked out at 350 µM and the Vmax (as a rule, the rate approached at saturating substrate) is 0.86 µM/min.

B2: Acidothermus cellulolyticus EI endoglucanase (Cel5A) catalytic domain variant W42R, SEQ ID NO:1 (Acidothermus cellulolyticus 11B; W83R) (protein)
chain: AGGGYWHTSGREILDANNVPVRIAGINWFGFETCNYVVHGLRSRDYRSMLDQIKSLGYNTIRLPYSDDILKPGTMPNSINFYQMNQDLQGLTSLQVMDKIVAYAGQIGLRIILDRHRPDCSGQSALWYTSSVSEATWISDLQALAQRYKGNPTVVGFDLHNEPHDPACWGCGDPSIDWRLAAERAGNAVLSVNPNLLIFVEGVQSYNGDSYWWGGNLQGAGQYPVVLNVPNRLVYSAHDYATSVYPQTWFSDPTFPNNMPGIWNKNWGYLFNQNIAPVWLGEFGTTLQSTTDQTWLKTLVQYLRPTAQYGADSFQWTFWSWNPDSGDTGGILKDDWQTVDTVKDGYLAPIKSSIFDPV
notes: the protein was genetically truncated near the beginning of the linker peptide; made in house; host or cells: E. coli XL1-blue
For B2, in data set [2], the Km is 610 µM and the Vmax is 0.99 µM/min.

B3: Acidothermus cellulolyticus EI endoglucanase (Cel5A) catalytic domain variant Y82R, SEQ ID NO:2 (Acidothermus cellulolyticus 11B; Y123R) (protein)
chain: B2 chain with R42W, Y82R
notes: as for B2
As to B3, in data set [2], the Michaelis-Menten constant (Km) was found to be 690 µM and the Vmax is 1.5 µM/min.

B4: Acidothermus cellulolyticus EI endoglucanase (Cel5A) catalytic domain variant Y245G, SEQ ID NO:3 (Acidothermus cellulolyticus 11B; Y286G) (protein)
chain: B2 chain with R42W, Y245G
notes: the mutant and wild type Cel5A catalytic domains were purified using the purification methods described above; made in house; host or cells: E. coli XL1-blue
On to B4, for which, in data set [2], the Michaelis constant (Km) turned out to be 480 µM and the maximum rate (Vmax) amounted to 0.85 µM/min.

The values above are taken from patent US20030054535A1, “Endoglucanase mutants and mutant hydrolytic depolymerizing enzymes and uses thereof” (priority 1999, published 2003).
